The supplement of paper PMC6755084

B1: F1*; the commonest letter at each place (parent)
chain: GAGACCGCAACTGAAAAGTTGTTATCACTTGTCGTAAGACACTTTGGATGGGTTGAAGTTCTGCACGTAGAAGCAAAAGGC

Variants of: B1
Test: fraction ligated after 30 min (ligated reads / total reads); higher = more ligase activity
Conditions: with F1*sub RNA substrate (template-directed ligation), 42 °C
Summary of the method: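 Oligo-pool templates underwent PCR amplification, T7 transcription and gel purification to yield ribozyme variants. Gel-separated ligated and unligated bands were converted to complementary DNA with barcoded primers and sequenced on a MiSeq, keeping core bases of quality ≥20. The ratio of ligated reads to total reads gave the fraction ligated for every variant.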

| Variant | fraction ligated |
| --- | --- |
| GAGACCGCAACTGAAAAGTTGTTATCACTTGTCGTAATACACTTTCGATGGGTTGAAGTTCTGCACGTAGAAGCAAAAGGC | 0.787 |
| GAGACCGCAACTGAAAAGTTGTTATCACTTGTCGTAATACACTTTTGATGGGTTGAAGTTCTGCACGTAGAAGCAAAAGGC | 0.782 |
| GAGACCGCAACTGAAAAGTTGTTATCACTTGTCGTAATACACTTTGAATGGGTTGAAGTTCTGCACGTAGAAGCAAAAGGC | 0.762 |
| GAGACCGCAACTGAAAAGTTGTTATCACTTGTCGTAATACACTTTGCATGGGTTGAAGTTCTGCACGTAGAAGCAAAAGGC | 0.114 |
| GAGACCGCAACTGAAAAGTTGTTATCACTTGTCGTAATACACTTTGTATGGGTTGAAGTTCTGCACGTAGAAGCAAAAGGC | 0.139 |
| GAGACCGCAACTGAAAAGTTGTTATCACTTGTCGTAATACACTTTGGATAGGTTGAAGTTCTGCACGTAGAAGCAAAAGGC | 0.386 |
| GAGACCGCAACTGAAAAGTTGTTATCACTTGTCGTAATACACTTTGGATCGGTTGAAGTTCTGCACGTAGAAGCAAAAGGC | 0.134 |
| GAGACCGCAACTGAAAAGTTGTTATCACTTGTCGTAATACACTTTGGATTGGTTGAAGTTCTGCACGTAGAAGCAAAAGGC | 0.723 |
| GAGACCGCAACTGAAAAGTTGTTATCACTTGTCGTAATACACTTTGGATGGGTTAAAGTTCTGCACGTAGAAGCAAAAGGC | 0.823 |
| GAGACCGCAACTGAAAAGTTGTTATCACTTGTCGTAATACACTTTGGATGGGTTCAAGTTCTGCACGTAGAAGCAAAAGGC | 0.781 |
| GAGACCGCAACTGAAAAGTTGTTATCACTTGTCGTAATACACTTTGGATGGGTTTAAGTTCTGCACGTAGAAGCAAAAGGC | 0.798 |
| GAGACCGCAACTGAAAAGTTGTTATCACTTGTCGTAATACACATTGGATGGGTTGAAGTTCTGCACGTAGAAGCAAAAGGC | 0.808 |
| GAGACCGCAACTGAAAAGTTGTTATCACTTGTCGTAATACACCTTGGATGGGTTGAAGTTCTGCACGTAGAAGCAAAAGGC | 0.814 |
| GAGACCGCAACTGAAAAGTTGTTATCACTTGTCGTAATACACGTTGGATGGGTTGAAGTTCTGCACGTAGAAGCAAAAGGC | 0.773 |
| GAGACCGCAACTGAAAAGTTGTTATCACTTGTCGTAATACACTATGGATGGGTTGAAGTTCTGCACGTAGAAGCAAAAGGC | 0.823 |
| GAGACCGCAACTGAAAAGTTGTTATCACTTGTCGTAATACACTCTGGATGGGTTGAAGTTCTGCACGTAGAAGCAAAAGGC | 0.831 |
| GAGACCGCAACTGAAAAGTTGTTATCACTTGTCGTAATACACTGTGGATGGGTTGAAGTTCTGCACGTAGAAGCAAAAGGC | 0.828 |
| GAGACCGCAACTGAAAAGTTGTTATCACTTGTCGTAATACACTTAGGATGGGTTGAAGTTCTGCACGTAGAAGCAAAAGGC | 0.783 |
| GAGACCGCAACTGAAAAGTTGTTATCACTTGTCGTAATACACTTCGGATGGGTTGAAGTTCTGCACGTAGAAGCAAAAGGC | 0.627 |
| GAGACCGCAACTGAAAAGTTGTTATCACTTGTCGTAATACACTTGGGATGGGTTGAAGTTCTGCACGTAGAAGCAAAAGGC | 0.0535 |
| GAGACCGCAACTGAAAAGTTGTTATCACTTGTCGTAATACACTTTGGAAGGGTTGAAGTTCTGCACGTAGAAGCAAAAGGC | 0.757 |
| GAGACCGCAACTGAAAAGTTGTTATCACTTGTCGTAATACACTTTGGACGGGTTGAAGTTCTGCACGTAGAAGCAAAAGGC | 0.204 |
| GAGACCGCAACTGAAAAGTTGTTATCACTTGTCGTAATACACTTTGGAGGGGTTGAAGTTCTGCACGTAGAAGCAAAAGGC | 0.76 |

| Variant | fraction ligated |
| --- | --- |
| GAGACCGCAACTGAAAAGTTGTTATCACTTGTCGTAAGCCACTTTGGATGGGTTGAAGTTCTGCACGTAGAAGCAAAAGGC | 0.832 |
| GAGACCGCAACTGAAAAGTTGTTATCACTTGTCGTAAGCCCCTTTGGATGGGTTGAAGTTCTGCACGTAGAAGCAAAAGGC | 0.792 |
| GAGACCGCAACTGAAAAGTTGTTATCACTTGTCGTAAGCCGCTTTGGATGGGTTGAAGTTCTGCACGTAGAAGCAAAAGGC | 0.741 |
| GAGACCGCAACTGAAAAGTTGTTATCACTTGTCGTAAGCCTCTTTGGATGGGTTGAAGTTCTGCACGTAGAAGCAAAAGGC | 0.751 |
| GAGACCGCAACTGAAAAGTTGTTATCACTTGTCGTAAGCCACTTTGGCTGGGTTGAAGTTCTGCACGTAGAAGCAAAAGGC | 0.0845 |
| GAGACCGCAACTGAAAAGTTGTTATCACTTGTCGTAAGCCACTTTGGGTGGGTTGAAGTTCTGCACGTAGAAGCAAAAGGC | 0.776 |
| GAGACCGCAACTGAAAAGTTGTTATCACTTGTCGTAAGCCACTTTGGTTGGGTTGAAGTTCTGCACGTAGAAGCAAAAGGC | 0.465 |
| GAGACCGCAACTGAAAAGTTGTTATCACTTGTCGTAAGCCACTTTGGATGGGTTGCAGTTCTGCACGTAGAAGCAAAAGGC | 0.746 |
| GAGACCGCAACTGAAAAGTTGTTATCACTTGTCGTAAGCCACTTTGGATGGGTTGGAGTTCTGCACGTAGAAGCAAAAGGC | 0.779 |
| GAGACCGCAACTGAAAAGTTGTTATCACTTGTCGTAAGCCACTTTGGATGGGTTGTAGTTCTGCACGTAGAAGCAAAAGGC | 0.771 |
| GAGACCGCAACTGAAAAGTTGTTATCACTTGTCGTAAGCCACTTTGGATGGGTTGACGTTCTGCACGTAGAAGCAAAAGGC | 0.827 |
| GAGACCGCAACTGAAAAGTTGTTATCACTTGTCGTAAGCCACTTTGGATGGGTTGAGGTTCTGCACGTAGAAGCAAAAGGC | 0.786 |
| GAGACCGCAACTGAAAAGTTGTTATCACTTGTCGTAAGCCACTTTGGATGGGTTGATGTTCTGCACGTAGAAGCAAAAGGC | 0.798 |
| GAGACCGCAACTGAAAAGTTGTTATCACTTGTCGTAAGCAACTTTGGATGGGTTGAAGTTCTGCACGTAGAAGCAAAAGGC | 0.797 |
| GAGACCGCAACTGAAAAGTTGTTATCACTTGTCGTAAGCGACTTTGGATGGGTTGAAGTTCTGCACGTAGAAGCAAAAGGC | 0.811 |
| GAGACCGCAACTGAAAAGTTGTTATCACTTGTCGTAAGCTACTTTGGATGGGTTGAAGTTCTGCACGTAGAAGCAAAAGGC | 0.784 |
| GAGACCGCAACTGAAAAGTTGTTATCACTTGTCGTAAGCCAATTTGGATGGGTTGAAGTTCTGCACGTAGAAGCAAAAGGC | 0.842 |
| GAGACCGCAACTGAAAAGTTGTTATCACTTGTCGTAAGCCAGTTTGGATGGGTTGAAGTTCTGCACGTAGAAGCAAAAGGC | 0.834 |
| GAGACCGCAACTGAAAAGTTGTTATCACTTGTCGTAAGCCATTTTGGATGGGTTGAAGTTCTGCACGTAGAAGCAAAAGGC | 0.827 |
| GAGACCGCAACTGAAAAGTTGTTATCACTTGTCGTAAGCCACTTTAGATGGGTTGAAGTTCTGCACGTAGAAGCAAAAGGC | 0.802 |
| GAGACCGCAACTGAAAAGTTGTTATCACTTGTCGTAAGCCACTTTCGATGGGTTGAAGTTCTGCACGTAGAAGCAAAAGGC | 0.764 |
| GAGACCGCAACTGAAAAGTTGTTATCACTTGTCGTAAGCCACTTTTGATGGGTTGAAGTTCTGCACGTAGAAGCAAAAGGC | 0.776 |
| GAGACCGCAACTGAAAAGTTGTTATCACTTGTCGTAAGCCACTTTGAATGGGTTGAAGTTCTGCACGTAGAAGCAAAAGGC | 0.757 |

| Variant | fraction ligated |
| --- | --- |
| GAGACCGCAACTGAAAAGTTGTTATCACTTGTCGTAAGCCACTTTGCATGGGTTGAAGTTCTGCACGTAGAAGCAAAAGGC | 0.349 |
| GAGACCGCAACTGAAAAGTTGTTATCACTTGTCGTAAGCCACTTTGTATGGGTTGAAGTTCTGCACGTAGAAGCAAAAGGC | 0.3 |
| GAGACCGCAACTGAAAAGTTGTTATCACTTGTCGTAAGCCACTTTGGATAGGTTGAAGTTCTGCACGTAGAAGCAAAAGGC | 0.292 |
| GAGACCGCAACTGAAAAGTTGTTATCACTTGTCGTAAGCCACTTTGGATCGGTTGAAGTTCTGCACGTAGAAGCAAAAGGC | 0.123 |
| GAGACCGCAACTGAAAAGTTGTTATCACTTGTCGTAAGCCACTTTGGATTGGTTGAAGTTCTGCACGTAGAAGCAAAAGGC | 0.503 |
| GAGACCGCAACTGAAAAGTTGTTATCACTTGTCGTAAGCCACTTTGGATGGGTTAAAGTTCTGCACGTAGAAGCAAAAGGC | 0.821 |
| GAGACCGCAACTGAAAAGTTGTTATCACTTGTCGTAAGCCACTTTGGATGGGTTCAAGTTCTGCACGTAGAAGCAAAAGGC | 0.695 |
| GAGACCGCAACTGAAAAGTTGTTATCACTTGTCGTAAGCCACTTTGGATGGGTTTAAGTTCTGCACGTAGAAGCAAAAGGC | 0.802 |
| GAGACCGCAACTGAAAAGTTGTTATCACTTGTCGTAAGCCACATTGGATGGGTTGAAGTTCTGCACGTAGAAGCAAAAGGC | 0.822 |
| GAGACCGCAACTGAAAAGTTGTTATCACTTGTCGTAAGCCACCTTGGATGGGTTGAAGTTCTGCACGTAGAAGCAAAAGGC | 0.815 |
| GAGACCGCAACTGAAAAGTTGTTATCACTTGTCGTAAGCCACGTTGGATGGGTTGAAGTTCTGCACGTAGAAGCAAAAGGC | 0.79 |
| GAGACCGCAACTGAAAAGTTGTTATCACTTGTCGTAAGCCACTATGGATGGGTTGAAGTTCTGCACGTAGAAGCAAAAGGC | 0.799 |
| GAGACCGCAACTGAAAAGTTGTTATCACTTGTCGTAAGCCACTCTGGATGGGTTGAAGTTCTGCACGTAGAAGCAAAAGGC | 0.797 |
| GAGACCGCAACTGAAAAGTTGTTATCACTTGTCGTAAGCCACTGTGGATGGGTTGAAGTTCTGCACGTAGAAGCAAAAGGC | 0.801 |
| GAGACCGCAACTGAAAAGTTGTTATCACTTGTCGTAAGCCACTTAGGATGGGTTGAAGTTCTGCACGTAGAAGCAAAAGGC | 0.778 |
| GAGACCGCAACTGAAAAGTTGTTATCACTTGTCGTAAGCCACTTCGGATGGGTTGAAGTTCTGCACGTAGAAGCAAAAGGC | 0.634 |
| GAGACCGCAACTGAAAAGTTGTTATCACTTGTCGTAAGCCACTTGGGATGGGTTGAAGTTCTGCACGTAGAAGCAAAAGGC | 0.138 |
| GAGACCGCAACTGAAAAGTTGTTATCACTTGTCGTAAGCCACTTTGGAAGGGTTGAAGTTCTGCACGTAGAAGCAAAAGGC | 0.706 |
| GAGACCGCAACTGAAAAGTTGTTATCACTTGTCGTAAGCCACTTTGGACGGGTTGAAGTTCTGCACGTAGAAGCAAAAGGC | 0.159 |
| GAGACCGCAACTGAAAAGTTGTTATCACTTGTCGTAAGCCACTTTGGAGGGGTTGAAGTTCTGCACGTAGAAGCAAAAGGC | 0.737 |
| GAGACCGCAACTGAAAAGTTGTTATCACTTGTCGTAAGGCACTTTGGATGGGTTGAAGTTCTGCACGTAGAAGCAAAAGGC | 0.839 |
| GAGACCGCAACTGAAAAGTTGTTATCACTTGTCGTAAGGCCCTTTGGATGGGTTGAAGTTCTGCACGTAGAAGCAAAAGGC | 0.781 |
